# Measurements published in PMC10057847, “Precision engineering of biological function with large-scale measurements and machine learning” (PLOS ONE, 2023).
# “And” between values parts separate entries of the source, which are not always exact repeats. Identical values can stand only once.
# System: eYFP under the control of the lactose operator (lacO)
# Experiment: in vivo dose-response curves of LacI variants to IPTG measured with flow cytometry (eYFP output), fit to the Hill equation
# Type: cell-based, E. coli
# Conditions: for dose-response phenotype (in words): IPTG dose-response by flow cytometry; for n: the Hill coefficient: IPTG dose-response; for log_g0: the base-10 logarithm of G0 (in MEF) / log_ginf: the base-10 logarithm of G∞ (in MEF): value is log10; for log_ginf: the base-10 logarithm of G∞ (in MEF): saturating output; for geo_mean: geometric mean of the YFP signal measured by cytometry: clone A
# Protocol: Dose-response curves were measured with flow cytometry using E. coli MG1655Δlac transformed with variants of the pVER plasmid, described previously. The plasmid contained different variants of the lacI coding DNA sequence (CDS), as described in the text, and an expression cassette with enhanced yellow fluorescent protein (eYFP) under the control of the lactose operator (lacO). The lacI CDS was verified with Sanger sequencing for each variant.
# All cultures were grown in a rich M9 media (3 g/L KH2PO4, 6.78 g/L Na2HPO4, 0.5 g/L NaCl, 1 g/L NH4Cl, 0.1 mmol/L CaCl2, 2 mmol/L MgSO4, 4% glycerol, and 20 g/L casamino acids) supplemented with 50 μg/mL kanamycin.
# For flow cytometry measurements, E. coli cultures were grown in a laboratory automation system that included an automated liquid handler (Hamilton, STAR), an automated plate sealer (4titude, a4S), an automated de-sealer (Brooks, XPeel), and two multi-mode plate readers (BioTek, Neo2SM).
# Cultures were grown in clear polystyrene 96-well plates with 1.1 mL square wells (4titude, 4ti-0255). The culture volume per well was 0.5 mL. Before incubation, each 96-well growth plate was sealed by the automated plate sealer with a gas permeable membrane (4titude, 4ti-0598). Growth plates were incubated in one of the multi-mode plate readers at 37°C with a 1°C gradient applied from the bottom to the top of the incubation chamber to minimize condensation on the inside of the membrane. The plate readers were set for double-orbital shaking at 807 cycles per minute. Optical density at 600 nm (OD600) was measured every 5 minutes during incubation, with continuous shaking applied between measurements (optical density at 700 nm and YFP fluorescence were also measured every 5 minutes). After incubation, the automated de-sealer was used to remove the gas-permeable membrane from each 96-well plate to enable automated passaging of cultures and sample preparation for flow cytometry measurements.
# For each measurement, starter cultures were prepared from glycerol freezer stock in 5 mL of rich M9 media in a 14 mL snap-cap culture tubes. Starter cultures were incubated at 37°C with orbital shaking at 300 rpm for between 4 h and 24 h prior to loading the automation system. The automation system then prepared 96-well growth plates, sealed and de-sealed the growth plates, incubated the growth plates, and prepared flow cytometry sample plates. The automated culture protocol consisted of the following steps: […]
# [1] = basal output, Hill fit of cytometry data, posterior mean
# [2] = Hill fit of cytometry data, posterior mean
molecule,measurement,setting,value
"pVER-IPTG-WT(Q181H): LacI variant: Q181H (protein, UniProt P03023 1-360, looked up, variant Q181H) Lactose operon repressor: MKPVTLYDVAEYAGVSYQTVSRVVNQASHVSAKTREKVEAAMAELNYIPNRVAQQLAGKQSLLIGVATSSLALHAPSQIVAAIKSRADQLGASVVVSMVERSGVEACKAAVHNLLAQRVSGLIINYPLDDQDAIAVEAACTNVPALFLDVSDQTPINSIIFSHEDGTRLGVEHLVALGHQHIALLAGPLSSVSARLRLAGWHKYLTRNQIQPIAEREGDWSAMSGFQQTMQMLNEGIVPTAMLVANDQMALGAMRAITESGLRVGADISVVGYDDTEDSSCYIPPLTTIKQDFRLLGQTSVDRLLQLSQGQAVKGNQLLPVSLVKRKTTLAPNTQTASPRALADSLMQLARQVSRLESGQ",dose-response phenotype (in words),,silent in wild-type background
"pVER-IPTG-WT(N208Y): LacI variant: N208Y (protein, UniProt P03023 1-360, looked up, variant N208Y) Lactose operon repressor: MKPVTLYDVAEYAGVSYQTVSRVVNQASHVSAKTREKVEAAMAELNYIPNRVAQQLAGKQSLLIGVATSSLALHAPSQIVAAIKSRADQLGASVVVSMVERSGVEACKAAVHNLLAQRVSGLIINYPLDDQDAIAVEAACTNVPALFLDVSDQTPINSIIFSHEDGTRLGVEHLVALGHQQIALLAGPLSSVSARLRLAGWHKYLTRYQIQPIAEREGDWSAMSGFQQTMQMLNEGIVPTAMLVANDQMALGAMRAITESGLRVGADISVVGYDDTEDSSCYIPPLTTIKQDFRLLGQTSVDRLLQLSQGQAVKGNQLLPVSLVKRKTTLAPNTQTASPRALADSLMQLARQVSRLESGQ",dose-response phenotype (in words),,silent in wild-type background
"pVER-IPTG-WT(S190C): LacI variant: S190C (protein, UniProt P03023 1-360, looked up, variant S190C) Lactose operon repressor: MKPVTLYDVAEYAGVSYQTVSRVVNQASHVSAKTREKVEAAMAELNYIPNRVAQQLAGKQSLLIGVATSSLALHAPSQIVAAIKSRADQLGASVVVSMVERSGVEACKAAVHNLLAQRVSGLIINYPLDDQDAIAVEAACTNVPALFLDVSDQTPINSIIFSHEDGTRLGVEHLVALGHQQIALLAGPLCSVSARLRLAGWHKYLTRNQIQPIAEREGDWSAMSGFQQTMQMLNEGIVPTAMLVANDQMALGAMRAITESGLRVGADISVVGYDDTEDSSCYIPPLTTIKQDFRLLGQTSVDRLLQLSQGQAVKGNQLLPVSLVKRKTTLAPNTQTASPRALADSLMQLARQVSRLESGQ",dose-response phenotype (in words),,silent in wild-type background
"pVER-IPTG-WT: wild-type LacI (lac repressor) on the pVER plasmid (protein, UniProt P03023 1-360, looked up) Lactose operon repressor: MKPVTLYDVAEYAGVSYQTVSRVVNQASHVSAKTREKVEAAMAELNYIPNRVAQQLAGKQSLLIGVATSSLALHAPSQIVAAIKSRADQLGASVVVSMVERSGVEACKAAVHNLLAQRVSGLIINYPLDDQDAIAVEAACTNVPALFLDVSDQTPINSIIFSHEDGTRLGVEHLVALGHQQIALLAGPLSSVSARLRLAGWHKYLTRNQIQPIAEREGDWSAMSGFQQTMQMLNEGIVPTAMLVANDQMALGAMRAITESGLRVGADISVVGYDDTEDSSCYIPPLTTIKQDFRLLGQTSVDRLLQLSQGQAVKGNQLLPVSLVKRKTTLAPNTQTASPRALADSLMQLARQVSRLESGQ",n: the Hill coefficient,Hill fit of cytometry data,1.559
same,G0,basal output,158 MEF
same,log_g0: the base-10 logarithm of G0 (in MEF),[1],2.097 MEF
same,log_ginf: the base-10 logarithm of G∞ (in MEF),[2],4.44 MEF
"pVER-IPTG-WT(V136E/G200C): LacI variant: V136E G200C (protein, UniProt P03023 1-360, looked up, variant V136E G200C) Lactose operon repressor: MKPVTLYDVAEYAGVSYQTVSRVVNQASHVSAKTREKVEAAMAELNYIPNRVAQQLAGKQSLLIGVATSSLALHAPSQIVAAIKSRADQLGASVVVSMVERSGVEACKAAVHNLLAQRVSGLIINYPLDDQDAIAEEAACTNVPALFLDVSDQTPINSIIFSHEDGTRLGVEHLVALGHQQIALLAGPLSSVSARLRLACWHKYLTRNQIQPIAEREGDWSAMSGFQQTMQMLNEGIVPTAMLVANDQMALGAMRAITESGLRVGADISVVGYDDTEDSSCYIPPLTTIKQDFRLLGQTSVDRLLQLSQGQAVKGNQLLPVSLVKRKTTLAPNTQTASPRALADSLMQLARQVSRLESGQ",EC50,"IPTG as ligand, Hill fit of cytometry data, posterior mean, read-out: log_ec50: the base-10 logarithm of EC50 (converted)",2.48 µM
same,dose-response phenotype (in words),,band-stop dose-response curve
same,n: the Hill coefficient,Hill fit of cytometry data,2.118
same,log_g0: the base-10 logarithm of G0 (in MEF),[1],3.294 MEF
same,log_ginf: the base-10 logarithm of G∞ (in MEF),[2],4.168 MEF
"pVER-IPTG-WT(V136E): LacI variant: V136E (protein, UniProt P03023 1-360, looked up, variant V136E) Lactose operon repressor: MKPVTLYDVAEYAGVSYQTVSRVVNQASHVSAKTREKVEAAMAELNYIPNRVAQQLAGKQSLLIGVATSSLALHAPSQIVAAIKSRADQLGASVVVSMVERSGVEACKAAVHNLLAQRVSGLIINYPLDDQDAIAEEAACTNVPALFLDVSDQTPINSIIFSHEDGTRLGVEHLVALGHQQIALLAGPLSSVSARLRLAGWHKYLTRNQIQPIAEREGDWSAMSGFQQTMQMLNEGIVPTAMLVANDQMALGAMRAITESGLRVGADISVVGYDDTEDSSCYIPPLTTIKQDFRLLGQTSVDRLLQLSQGQAVKGNQLLPVSLVKRKTTLAPNTQTASPRALADSLMQLARQVSRLESGQ",dose-response phenotype (in words),,reduced G∞ but G0 and EC50 similar to the wild type
"pVER-IPTG-WT(Q231R): LacI variant: Q231R (protein, UniProt P03023 1-360, looked up, variant Q231R) Lactose operon repressor: MKPVTLYDVAEYAGVSYQTVSRVVNQASHVSAKTREKVEAAMAELNYIPNRVAQQLAGKQSLLIGVATSSLALHAPSQIVAAIKSRADQLGASVVVSMVERSGVEACKAAVHNLLAQRVSGLIINYPLDDQDAIAVEAACTNVPALFLDVSDQTPINSIIFSHEDGTRLGVEHLVALGHQQIALLAGPLSSVSARLRLAGWHKYLTRNQIQPIAEREGDWSAMSGFQQTMRMLNEGIVPTAMLVANDQMALGAMRAITESGLRVGADISVVGYDDTEDSSCYIPPLTTIKQDFRLLGQTSVDRLLQLSQGQAVKGNQLLPVSLVKRKTTLAPNTQTASPRALADSLMQLARQVSRLESGQ",dose-response phenotype (in words),,silent in wild-type background
"pVER-IPTG-001: LacI variant: Q55H D130E V192A T258I D267N Y273H N333I (protein, UniProt P03023 1-360, looked up, variant Q55H D130E V192A T258I D267N Y273H N333I) Lactose operon repressor: MKPVTLYDVAEYAGVSYQTVSRVVNQASHVSAKTREKVEAAMAELNYIPNRVAQHLAGKQSLLIGVATSSLALHAPSQIVAAIKSRADQLGASVVVSMVERSGVEACKAAVHNLLAQRVSGLIINYPLDEQDAIAVEAACTNVPALFLDVSDQTPINSIIFSHEDGTRLGVEHLVALGHQQIALLAGPLSSASARLRLAGWHKYLTRNQIQPIAEREGDWSAMSGFQQTMQMLNEGIVPTAMLVANDQMALGAMRAIIESGLRVGANISVVGHDDTEDSSCYIPPLTTIKQDFRLLGQTSVDRLLQLSQGQAVKGNQLLPVSLVKRKTTLAPITQTASPRALADSLMQLARQVSRLESGQ",geo_mean: geometric mean of the YFP signal measured by cytometry,IPTG 0.0 μmol/L,26059.303161112988 and 23664.3303473106
same,geo_mean: geometric mean of the YFP signal measured by cytometry,IPTG 2.0 μmol/L,26140.44981266789
same,geo_mean: geometric mean of the YFP signal measured by cytometry,IPTG 4.0 μmol/L,26093.69376618197
same,geo_mean: geometric mean of the YFP signal measured by cytometry,IPTG 8.0 μmol/L,26130.45714766927
"pVER-IPTG-WT(S279T/V136E): LacI variant: V136E S279T (protein, UniProt P03023 1-360, looked up, variant V136E S279T) Lactose operon repressor: MKPVTLYDVAEYAGVSYQTVSRVVNQASHVSAKTREKVEAAMAELNYIPNRVAQQLAGKQSLLIGVATSSLALHAPSQIVAAIKSRADQLGASVVVSMVERSGVEACKAAVHNLLAQRVSGLIINYPLDDQDAIAEEAACTNVPALFLDVSDQTPINSIIFSHEDGTRLGVEHLVALGHQQIALLAGPLSSVSARLRLAGWHKYLTRNQIQPIAEREGDWSAMSGFQQTMQMLNEGIVPTAMLVANDQMALGAMRAITESGLRVGADISVVGYDDTEDTSCYIPPLTTIKQDFRLLGQTSVDRLLQLSQGQAVKGNQLLPVSLVKRKTTLAPNTQTASPRALADSLMQLARQVSRLESGQ",dose-response phenotype (in words),,more complicated non-monotonic dose-response (high-low-high-low)
"pVER-IPTG-WT(V271M): LacI variant: V271M (protein, UniProt P03023 1-360, looked up, variant V271M) Lactose operon repressor: MKPVTLYDVAEYAGVSYQTVSRVVNQASHVSAKTREKVEAAMAELNYIPNRVAQQLAGKQSLLIGVATSSLALHAPSQIVAAIKSRADQLGASVVVSMVERSGVEACKAAVHNLLAQRVSGLIINYPLDDQDAIAVEAACTNVPALFLDVSDQTPINSIIFSHEDGTRLGVEHLVALGHQQIALLAGPLSSVSARLRLAGWHKYLTRNQIQPIAEREGDWSAMSGFQQTMQMLNEGIVPTAMLVANDQMALGAMRAITESGLRVGADISVMGYDDTEDSSCYIPPLTTIKQDFRLLGQTSVDRLLQLSQGQAVKGNQLLPVSLVKRKTTLAPNTQTASPRALADSLMQLARQVSRLESGQ",dose-response phenotype (in words),,silent in wild-type background
